T1: HOOK3(2–552)::Strep-tag II (human, UniProt Q86VS8 2-552)
T1 construct: human Hook homolog 3 (HOOK3), residues 2-552; used for the GST pull-downs; also called Hook homolog 3; source: E. coli Rosetta, purified (Ni-NTA, TEV cleavage, Strep-Tactin; dialysis or SEC); not shown: 6xHis::MBP, N-terminal, cleaved; Strep-tag II (after linker GSGSGR), C-terminal, kept
T1 sequence (looked up): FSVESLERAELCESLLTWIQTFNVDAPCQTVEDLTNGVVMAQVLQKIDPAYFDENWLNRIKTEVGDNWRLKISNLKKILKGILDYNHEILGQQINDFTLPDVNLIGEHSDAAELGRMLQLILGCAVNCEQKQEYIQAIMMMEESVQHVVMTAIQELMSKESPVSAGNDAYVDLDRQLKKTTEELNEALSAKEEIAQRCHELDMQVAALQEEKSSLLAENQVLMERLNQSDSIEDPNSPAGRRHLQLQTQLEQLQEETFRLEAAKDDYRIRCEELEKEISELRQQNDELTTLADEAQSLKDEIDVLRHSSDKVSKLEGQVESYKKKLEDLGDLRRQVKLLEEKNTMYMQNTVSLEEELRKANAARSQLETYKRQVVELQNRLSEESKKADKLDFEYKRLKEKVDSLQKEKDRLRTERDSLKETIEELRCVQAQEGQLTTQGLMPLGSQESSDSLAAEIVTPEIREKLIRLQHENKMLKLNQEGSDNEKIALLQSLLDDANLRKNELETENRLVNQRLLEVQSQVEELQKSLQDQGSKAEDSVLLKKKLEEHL

T2: RILP(1–401)::Strep-tag II (human, UniProt Q96NA2 1-401)
T2 construct: also called RILP::Strep-tag II; source: Sf21 insect cells (baculovirus), purified (Strep-Tactin Sepharose); not shown: Strep-tag II (after linker GSGSGR), C-terminal, kept
T2 sequence (looked up): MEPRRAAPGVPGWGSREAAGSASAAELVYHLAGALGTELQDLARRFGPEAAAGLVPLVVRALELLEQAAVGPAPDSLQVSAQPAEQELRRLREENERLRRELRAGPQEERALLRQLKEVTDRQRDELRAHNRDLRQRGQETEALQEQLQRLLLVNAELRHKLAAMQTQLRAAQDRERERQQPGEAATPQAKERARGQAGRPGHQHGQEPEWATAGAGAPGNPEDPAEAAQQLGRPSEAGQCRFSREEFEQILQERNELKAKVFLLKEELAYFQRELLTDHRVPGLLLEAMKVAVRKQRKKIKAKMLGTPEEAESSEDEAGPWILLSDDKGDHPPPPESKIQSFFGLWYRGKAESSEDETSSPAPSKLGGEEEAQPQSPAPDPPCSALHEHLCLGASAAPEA

B1: GST::LIC1(402–471)::6xHis (domain or fragment, human)
chain: WPGGSPRTPNRSVSSNVASVSPIPAGSKKIDPNMKAGATSEGVLANFFNSLLSKKTGSPGGPGVSGGSPAG
notes: single N-terminal tryptophan added in the construct; human dynein light intermediate chain 1 (DYNC1LI1), residues 402-471; source: E. coli BL21, purified (glutathione agarose, Ni-NTA; dialysis or SEC); not shown: GST, N-terminal, kept; 6xHis (after linker GSGSG), C-terminal, kept
B2: GST::LIC2(375–492)::6xHis (domain or fragment, human)
chain: WATPTRASESPARGPSGSPRTQGRGGPASVPSSSPGTSVKKPDPNIKNNAASEGVLASFFNSLLSKKTGSPGSPGAGGVQSTAKKSGQKTVLSNVQEELDRMTRKPDSMVTNSSTENEA
notes: single N-terminal tryptophan added in the construct; also called LIC2-C; source: E. coli BL21, purified (glutathione agarose, Ni-NTA; dialysis or SEC); not shown: GST, N-terminal, kept; 6xHis (after linker GSGSG), C-terminal, kept
B3: GST::LIC1(414–471)::6xHis (domain or fragment, human)
chain: WSSNVASVSPIPAGSKKIDPNMKAGATSEGVLANFFNSLLSKKTGSPGGPGVSGGSPAG
notes: single N-terminal tryptophan added in the construct; human dynein light intermediate chain 1 (DYNC1LI1), residues 414-471; source: E. coli BL21, purified (glutathione agarose, Ni-NTA; dialysis or SEC); not shown: GST, N-terminal, kept; 6xHis (after linker GSGSG), C-terminal, kept
B4: GST::LIC2(375–450)::6xHis (domain or fragment, human)
chain: WATPTRASESPARGPSGSPRTQGRGGPASVPSSSPGTSVKKPDPNIKNNAASEGVLASFFNSLLSKKTGSPGSPGAG
notes: single N-terminal tryptophan added in the construct; source: E. coli BL21, purified (glutathione agarose, Ni-NTA; dialysis or SEC); not shown: GST, N-terminal, kept; 6xHis (after linker GSGSG), C-terminal, kept

Experiments:
[1] = target: T1, HOOK3(2–552)::Strep-tag II; experiment: pull-down; GST::LIC::6xHis (50 pmol) with 50 or 250 pmol adaptor and glutathione agarose, 1 h at 4°C, 150 μL of 50 mM HEPES, 100 mM NaCl, 5 mM DTT, pH 7.5, 0.1% Tween 20; Coomassie staining and immunoblot against Strep-tag II; conditions: both partners purified
[2] = target: T2, RILP(1–401)::Strep-tag II; experiment: as above; conditions: both partners purified

Binder | binding result [1] | binding result [2]
B1 | binds | binds
B2 | binds | binds
B3 | binds | binds
B4 | binds | binds
